The values below come from article PMC3162038.

Substrate in the series: N[C@H]1C[C@H](COP(=O)(O)O)[C@@H](O)[C@H](O)[C@H]1O
Briefly: PK/LDH coupled colorimetric assay at A340, Hanes-Woolf plot. The class given is biochemical, Streptomyces hygroscopicus. To be noted: 300 μM GDP-valienol, 50 mM Tris-HCl pH 7.5, 5 mM MgCl2, apparent.

B1: VldE (Streptomyces hygroscopicus subsp. limoneus) (protein)
chain: MTGSEIFLASKRAAITYDTDPATGEPRAWLAPGGTGNVVAEQAGVLNISWIASADSEDDRRASALNPDGVTMELHSGREILVRLIRHDPAVFRNVQNFMTANLMWAANNYGWDRWTQPSFGSDAREGWADFGRFTRDFADAILKSSAQSADPVYLVHDYQLVGVPALLREQRPDAPILLFVHIPWPSADYWRILPKEIRTGILHGMLPATTIGFFADRWCRNFLESVADLLPDARIDREAMTVEWRGHRTRLRTMPLGYSPLTLDGRNPQLPEGIEEWADGHRLVVHSGRTDPIKNAERAVRAFVLAARGGGLEKTRMLVRMNPNRLYVPANADYVHRVETAVAEANAELGSDTVRIDNDNDVNHTIACFRRADLLIFNSTVDGQNLSTFEAPLVNERDADVILSETCGAAEVLGEYCRSVNPFDLVEQAEAISAALAAGPRQRAEAAARRRDAARPWTLEAWVQAQLDGLAADHAARTATAERFDTAPAVSTRADL
The Km is the concentration of substrate that gives half-maximal velocity. Consider B1, for which the Km came to 308.0 ± 34.5 µM.
